The source of these data is US20090010911A1, “METHODS AND COMPOSITIONS FOR AFFECTING CYCLOPHILIN A REGULATION OF KINASES IN MODULATING CELLULAR ACTIVITIES” (IOWA STATE UNIVERSITY RESEARCH FOUNDATION, INC., priority 2007, published 2009).

Experiment [1] deals with T1, Itk full-length enzyme (Mus musculus, UniProt Q03526).
T1 construct: Full-length Itk, Btk and Tec and the Itk kinase domain fragments were PCR amplified; made in house; host or cells: Sf9 insect cells (baculovirus), co-infected 1:1 with Lck baculovirus
T1 sequence (Q03526 1-625): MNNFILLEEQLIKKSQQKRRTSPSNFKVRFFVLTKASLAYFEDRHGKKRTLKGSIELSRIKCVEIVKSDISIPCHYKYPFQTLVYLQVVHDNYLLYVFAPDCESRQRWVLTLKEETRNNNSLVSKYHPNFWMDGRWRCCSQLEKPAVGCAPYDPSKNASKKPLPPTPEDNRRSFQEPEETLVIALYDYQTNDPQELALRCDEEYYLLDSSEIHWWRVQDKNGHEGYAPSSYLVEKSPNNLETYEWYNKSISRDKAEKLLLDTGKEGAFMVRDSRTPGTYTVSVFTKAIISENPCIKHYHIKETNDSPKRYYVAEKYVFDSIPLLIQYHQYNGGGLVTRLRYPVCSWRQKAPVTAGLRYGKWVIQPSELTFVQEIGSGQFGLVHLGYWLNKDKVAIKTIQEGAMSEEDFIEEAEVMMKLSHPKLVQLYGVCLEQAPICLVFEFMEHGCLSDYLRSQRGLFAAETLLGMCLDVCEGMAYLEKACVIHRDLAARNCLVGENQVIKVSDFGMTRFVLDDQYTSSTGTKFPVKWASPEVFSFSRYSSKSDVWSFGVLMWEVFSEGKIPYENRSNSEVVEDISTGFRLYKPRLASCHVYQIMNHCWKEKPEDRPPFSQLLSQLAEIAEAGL
In words: In vitro kinase assay with western blotting, phosphorylation of SH2 domain-containing substrates with added free SH2 domain or CypA. The experiment is classed as biochemical. Here is the method:
Substrate used in each experiment is indicated above each set of blots. 4(a) (left) Itk 32 substrate was incubated with Itk full-length enzyme as before (lane 1), or with Itk 32 domain:free Itk SH2 domain in ratios of 1:10, 1:25 or 1:50 (lanes 2-4, respectively) or equivalent ratios of PI3K N-terminal SH2 domain (lanes 5-7) and subjected to an in vitro kinase assay. […] Coomassie stain and an anti-FLAG blot (bottom panels) show protein levels. (right) The PLCγ1 SH2 domain competes with the PLCγ1 substrate in a similar manner. Lane 1 contains only Itk enzyme and PLCγ1 SH2C-Y783-substrate without additional free SH2 domain. Ratios of free SH2 domain to substrate are 1:5, 1:10 or 1:50 in lanes 2-4, respectively and equivalent ratios of PI3K SH2 domain are used in lanes 5-7. Coomassie stain of the gel and an anti-Itk blot (bottom panels) show protein levels. 4(b) Same experiment as shown in (a) using the Grb2 SH2 domain as a control. (left) Itk 32 substrate was incubated with Itk full-length enzyme (lane 1), or with Itk 32 domain:free Itk SH2 domain in ratios of 1:10 and 1:25 (lanes 2 & 3) or equivalent ratios of Grb2 SH2 domain (lanes 4 & 5) and subjected to an in vitro kinase assay. (right) Identical experiment following PLCγ1 substrate phosphorylation in the presence of the PLCγ1 and Grb2 SH2 domains. Lane 1 is PLCγ1 substrate alone; lanes 2 & 3 are PLCγ1 substrate:PLCγ1 SH2 domain in a 1:10 and 1:25 ratio, respectively and lanes 4 & 5 are identical ratios of PLCγ1 substrate:Grb2 SH2 domain. 4(c) The Itk SH2 domain competes with autophosphorylation of Y180 within full length Itk. For lanes 2-4, the amount of free SH2 domain is the same as used in panel (a), lanes 2-4. No exogenous SH2 domain has been added in lane 1 and full length Itk is both the enzyme and the substrate. Coomassie stain and an anti-FLAG blot (bottom panels) show protein levels. […] Initial velocities are shown for phosphorylation of peptide B (sequence shown in FIG. 5a) by full length Itk in the absence (column 1) and presence (column 2 and 3) of Itk SH2 domain. […]

Experiment [2] deals with T2, Itk LKD enzyme (Mus musculus, UniProt Q03526).
T2 construct: linker kinase domain (Itk LKD); made in house; host or cells: Sf9 insect cells (baculovirus), co-infected 1:1 with Lck baculovirus
T2 sequence (Q03526 344-625 limits assumed): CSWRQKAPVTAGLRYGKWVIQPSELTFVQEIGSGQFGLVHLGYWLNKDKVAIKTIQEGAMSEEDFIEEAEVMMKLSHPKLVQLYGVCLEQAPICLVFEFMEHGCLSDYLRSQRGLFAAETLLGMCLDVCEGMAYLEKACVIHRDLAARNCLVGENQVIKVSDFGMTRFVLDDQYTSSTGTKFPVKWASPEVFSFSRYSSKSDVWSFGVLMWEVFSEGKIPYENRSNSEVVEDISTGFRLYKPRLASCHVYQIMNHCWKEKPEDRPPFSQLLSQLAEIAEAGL
Kind of experiment: Quantitative kinase assay, Km determination for Peptide B and PLCγ1 SH2C-Peptide B fusion. The experiment is classed as biochemical. The note with it: phosphorylation by Itk LKD enzyme 0.9 μM, 200 μM ATP, room temperature. The source says:
5(a) Construction of a PLCγ1 SH2C-Peptide B fusion protein was based on alignment of Y783 within the PLCγ1 linker and the Tyr of Peptide B. The 14 amino acids of Peptide B were used to replace the last 16 amino acids of PLCγ1 SH2C-Y783-. The Tyr that is phosphorylated in each substrate is boxed. A mutant construct is also shown that contains serine in place of the tyrosine of peptide B. This site was mutated to serine instead of phenylalanine due to solubility problems associated with the Tyr to Phe mutation. 5(b) FLAG-tagged Itk LKD enzyme (1 μM) was incubated with 20 μM of the PLCγ1 SH2C-Peptide B fusion protein (lane 4) or 20 μM of the PLCγ1 SH2C-Peptide B(YS) mutant protein (lane 5) in an in vitro kinase assay. Lanes 1-3 are Itk enzyme alone, PLCγ1 SH2C-Peptide B substrate alone and PLCγ1 SH2C-Peptide B(YS) substrate alone, respectively, that have each been subjected to the same in vitro kinase assay conditions. (c & d) FLAG-tagged Itk LKD enzyme was incubated with increasing amounts of biotinylated PLCγ1 SH2C-Peptide B 5(c) or biotinylated Peptide B alone 5(d) in an in vitro kinase assay. 5(e) Kinetic parameters describing phosphorylation of Peptide B and the PLCγ1 SH2C-Peptide B fusion protein by Itk. Data shown are the average of two independent experiments. […]

The target in experiment [3] is T3, full length Itk (Mus musculus, UniProt Q03526).
T3 construct: made in house; host or cells: Sf9 insect cells (baculovirus), co-infected 1:1 with Lck baculovirus
T3 sequence (Q03526 1-625): T1 sequence (Q03526 1-625)
Kind of experiment: In vitro Itk kinase assay using Peptide B as the substrate (initial velocities). The class given is biochemical. The note with it: CypA to Itk 0 to 100 times excess; Itk 100 and 600 nM. As for the experimental part:
Substrate used in each experiment is indicated above each set of blots. 4(a) (left) Itk 32 substrate was incubated with Itk full-length enzyme as before (lane 1), or with Itk 32 domain:free Itk SH2 domain in ratios of 1:10, 1:25 or 1:50 (lanes 2-4, respectively) or equivalent ratios of PI3K N-terminal SH2 domain (lanes 5-7) and subjected to an in vitro kinase assay. […] Coomassie stain and an anti-FLAG blot (bottom panels) show protein levels. (right) The PLCγ1 SH2 domain competes with the PLCγ1 substrate in a similar manner. Lane 1 contains only Itk enzyme and PLCγ1 SH2C-Y783-substrate without additional free SH2 domain. Ratios of free SH2 domain to substrate are 1:5, 1:10 or 1:50 in lanes 2-4, respectively and equivalent ratios of PI3K SH2 domain are used in lanes 5-7. Coomassie stain of the gel and an anti-Itk blot (bottom panels) show protein levels. 4(b) Same experiment as shown in (a) using the Grb2 SH2 domain as a control. (left) Itk 32 substrate was incubated with Itk full-length enzyme (lane 1), or with Itk 32 domain:free Itk SH2 domain in ratios of 1:10 and 1:25 (lanes 2 & 3) or equivalent ratios of Grb2 SH2 domain (lanes 4 & 5) and subjected to an in vitro kinase assay. […]
The ratio of CypA to Itk varied between o and 100 times excess CypA. […] No change in Peptide B phosphorylation is detected. […]

Experiment [4] has as its target T4, Itk (Mus musculus, UniProt Q03526).
T4 construct: Full-length Itk, Btk and Tec and the Itk kinase domain fragments were PCR amplified; made in house; host or cells: Sf9 insect cells (baculovirus), co-infected 1:1 with Lck baculovirus
T4 sequence (Q03526 1-625): T1 sequence (Q03526 1-625)
In words: Pull-down experiment using purified Itk and purified CypA. The experiment is classed as binding. The note with it: full length Itk or kinase domain alone immobilized on beads. Here is the method:
In FIG. 16 full length Itk is immobilized on beads that are incubated with CypA. In FIG. 17 the kinase domain alone is immobilized on beads and incubated with CypA. […] The kinase domain alone contains the substrate docking site and so it is likely that CypA interacts with the Itk kinase domain in a manner that either completely or partially occludes the SH2 docking site.

Experiment [5] has as its target T1, Itk full-length enzyme. The note with it: published data (Brazin et al. 2002); cited from earlier work.

In the case of “Grb2 SH2 domain: Grb2 SH2 domain, control SH2 domain [reference compound]”, the “inhibition of PLCγ1 SH2C-Y783- substrate phosphorylation by free SH2 domain” value in experiment [1] (substrate:free SH2 domain ratios 1:5 to 1:50) is given as “do not inhibit”. In addition, in experiment [1] (substrate:free SH2 domain ratios 1:10, 1:25, 1:50), the “inhibition of Itk 32 substrate phosphorylation (Y180) by free SH2 domain” value is on record as “do not inhibit”.

“Aminohexanoyl biotin-EQEDEPEGIYGVLF-NH2 [Peptide B, reference compound]”: the Michaelis constant (Km) in experiment [2] stood at 87 µM.

For “CypA: peptidyl-prolyl isomerase Cyclophilin A, target of the immunosuppressive drug cyclosporin A”, the “effect on phosphorylation of Itk SH3-SH2 protein substrate (Y180)” value in experiment [1] (CypA:Itk 32 ratios 0.1:1, 1:1, 10:1, 25:1, signal reduced at 10:1 and 25:1) is “reduce phosphorylation”. Further, the “effect on phosphorylation kinetics of Peptide B” value in experiment [3] was “no effect”. The “interaction with Itk (pull-down)” value in experiment [4] is recorded as “interacts directly with Itk”. Also, the “effect on autophosphorylation of Itk in an in vitro kinase assay” value in experiment [5] is on record as “reduces autophosphorylation of Itk”.
